This passage reports inclination of approximate curve (binding response against peptide concentration) results from US20180044401A1.

Experiment [1] has as its target IgG-Fab prepared from anti-TNFα monoclonal antibody (Remicade). In words: SPR Biacore, Fab immobilized at about 10000 RU, peptide at 25-200 nM, response 1 minute after addition. For orientation: Surface plasmon resonance follows binding to a sensor surface in real time, without labels.
Experiment [2] addresses IgG-Fc of anti-TNFα monoclonal antibody (Remicade). Nature of the experiment: SPR Biacore, Fc immobilized at about 10000 RU, peptide at 25-200 nM, response 1 minute after addition.

“And” between values parts separate entries of the source, which are not always exact repeats. Equal values may be shown once.

B1: IgG-binding peptide of SEQ ID NO: 14 (designed binder)
chain: GPLGSTTYKLILNGKTLTGYTTAIADDAATAEKVLKQFANDNGIDGEWTYDDATKTFTVTE
Take B1: the inclination of approximate curve (binding response against peptide concentration) was 0.5 and 0.4 and 0.6 in experiment [1]; 0.5 and 0.4 and 0.6 in experiment [2].
